Patent US20220112285A1 (UNIVERSITY OF BIRMINGHAM, published 2022)
Blank lines part the entries; values can stand above or below the binder they belong to.

Experiments:
[1] = molecular target: the molecule itself; assay: X-ray crystal structure; dimer believed to result from binding of the heparin oligosaccharide DP12
Method: The preformed G6b-B:Fab complex at 12 mg/ml, in a buffer solution of 20 mM HEPES, 75 mM NaCl, pH 7.1 was incubated for 1 hour at 4° C. with 2 mM DP12 (Iduron Cat. No. HO12). This protein sample was then microfuged at 16,000 g, for 10 minutes at 4° C., before drops were set up using 150 nl sample and 100 nl reservoir solution. Reservoir conditions were 50 mM MES pH6.2, 10% PEG 550MME, 5% glycerol, and 50 mM CaCl₂. Crystallisation plates were incubated at 20° C. and flat plate crystals appeared within 3 days. The crystal was harvested straight out of the growth drop into liquid nitrogen. Diffraction data were collected at 100K on beamline 103 at Diamond Light Source and processed by XDS1 and Aimless2 via AutoPROC3. The crystal had the space group C2 with the cell dimensions of a=183.80, b=72.34, c=131.04, alpha=90.0°, beta=124.52°, gamma=90.0°, and gave a 97% complete dataset to 3.1 Å.

[2] = molecular target: T1, recombinant dimeric human G6b-B (human, UniProt O95866 18-142, limits assumed); assay: Fab as analyte over a G6b-B dimer channel (RU read-out; method not named), two stage reaction model
T1 construct: also called G6b-B dimer; dimeric G6b-B
T1 sequence (looked up): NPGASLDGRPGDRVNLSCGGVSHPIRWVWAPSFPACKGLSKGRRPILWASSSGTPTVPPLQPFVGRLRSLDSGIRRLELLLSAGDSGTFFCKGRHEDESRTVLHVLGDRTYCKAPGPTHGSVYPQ

[3] = molecular target: T2, recombinant monomeric human G6b-B (human, UniProt O95866 18-142, limits assumed); assay: Fab as analyte over a G6b-B monomer channel (RU read-out; method not named), two stage reaction model
T2 construct: also called G6b-B monomer; monomeric G6b-B
T2 sequence (looked up): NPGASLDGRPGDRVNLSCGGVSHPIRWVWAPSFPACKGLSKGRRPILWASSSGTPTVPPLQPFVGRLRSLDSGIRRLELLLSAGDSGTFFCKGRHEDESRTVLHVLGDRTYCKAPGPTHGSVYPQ

[4] = molecular target: T3, mouse G6b-B (mouse, UniProt D7PDD4 18-140, limits assumed); assay: plate binding assay (coated protein, HRP anti-mouse IgG, TMB, A450), FIG. 8
T3 construct: construct not described
T3 sequence (looked up): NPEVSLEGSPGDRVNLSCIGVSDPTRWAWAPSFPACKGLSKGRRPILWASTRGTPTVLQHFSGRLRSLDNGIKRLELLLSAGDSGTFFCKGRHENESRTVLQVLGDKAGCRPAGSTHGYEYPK
Method: FIG. 8—illustrates that the 17-4 antibody robustly binds to recombinant monomeric and dimeric human G6b-B, but not to mouse G6b-B in an in vitro binding assay. Wells of 96-well plate were coated with the indicated proteins overnight. Following blocking, wells were incubated with the indicated anti-G6b monoclonal antibodies (10 μg/ml) or IgG control. Antibody binding was detected with HRP-conjugated anti-mouse antibody and 3,3,5,5-tetramethylbenzidine (TMB) substrate; absorbance was measured with a plate reader at 450 nm.
Wells of 96-well Nunc MaxiSorp™ plates (Thermo Scientific) were coated overnight with 50 μl of indicated proteins, diluted in PBS at a concentration of 5 μg/ml. Plates were washed three times with Tris buffered saline (TBS) containing 0.1% Tween 20 (TBS-T) and blocked for 1.5 h at 37° C. with 2% fat free milk in TBS, 0.02% Tween 20. After one washing step, wells were incubated with the indicated anti-G6b monoclonal antibodies (10 μg/ml) or IgG control, diluted in 3% BSA in TBS-T for 1.5 h at RT. After five washing steps, wells were incubated with HRP-conjugated anti-mouse IgG antibody (Sigma) for 1 h at RT at low agitation. Plates were washed seven times and signals were developed with TMB. The reaction was stopped by addition of 2 M H₂SO₄ (50 μl/well) and absorbance at 450 nm and 570 nm (background) was measured with a Versa max plate reader (Molecular Devices).

B1: G6b-B ECD (18-133, [N32D, S67A, S68A, S69A, T71A]) (receptor, human, UniProt O95866 18-133, looked up)
chain: NPGASLDGRPGDRVDLSCGGVSHPIRWVWAPSFPACKGLSKGRRPILWAAAAGAPTVPPLQPFVGRLRSLDSGIRRLELLLSAGDSGTFFCKGRHEDESRTVLHVLGDRTYCKAPG
notes: Expressed in HEK293 6E cells and used for the crystal structure with the 17-4 Fab and the heparin oligosaccharide DP12; also called G6b ECD; G6b-ECD
- binding result [1]: binds

- Kd [2]: 0.262 nM
- Kd [3]: 0.126 nM
B2: His-tagged recombinant anti-G6b-B Fab fragment of antibody 17-4 (Fab, V domains shown)
VH: EVQLQQSGAELVKPGASVKLSCTASGFNIKETYIHWVKQRPEQGLEWIGRIDPADVYGRYDPKFQGKATITADTSSNSAYLQVSSLTSEDTAVYYCARSYGSSYGIDYWGQGTSVTVSS
VL: DIQMTQTTSSLSASLGDRVTISCRASQDISNYLNWYQQKPDGTVKLLIYYTSTLHSGVPSRFSGSGSGTDYSLTISNLEQEDVATYFCQQGYTLPWTFGGGTKLEIKR
notes: also called 17-4 Fab; 17-4 Fabs

- binding result [4]: no binding (tested: 10 µg/ml)
B3: anti-G6b mouse monoclonal antibody 17-4 (antibody, mouse IgG1, kappa, V domains shown)
VH: EVQLQQSGAELVKPGASVKLSCTASGFNIKETYIHWVKQRPEQGLEWIGRIDPADVYGRYDPKFQGKATITADTSSNSAYLQVSSLTSEDTAVYYCARSYGSSYGIDYWGQGTSVTVSS
VL: DIQMTQTTSSLSASLGDRVTISCRASQDISNYLNWYQQKPDGTVKLLIYYTSTLHSGVPSRFSGSGSGTDYSLTISNLEQEDVATYFCQQGYTLPWTFGGGTKLEIKR
notes: The entries may include leader peptides, since VH CDR2 residues are numbered 69 and 71; no cleavage site is stated; also called exemplary antibody 17-4; mAb 17-4
